The source of these data is PMC1853097, “The high-resolution NMR structure of the R21A Spc-SH3:P41 complex: Understanding the determinants of binding affinity by comparison with Abl-SH3” (BMC Structural Biology, 2007).

Assay [1] addresses R21A mutant of the α-spectrin SH3 domain (R21A Spc-SH3). Description: ITC titration of R21A Spc-SH3 with p41. To be noted: 25°C, global fit of three isotherms, error = 95% confidence interval. Type of assay: binding, chicken. As to the method:
(§1) The binding between the p41 decapeptide and the R21A Spc-SH3 mutant domain was studied by a combination of isothermal titration calorimetry (ITC) and differential scanning calorimetry (DSC) experiments. ITC experiments were performed at 25°C at both pH 3.0 and 7.0, using several buffers at a concentration of 20 mM. Similar ITC experiments were made with the WT Spc-SH3 domain for comparison. […] The contribution of protonation/deprotonation processes to the binding enthalpy change, was estimated using three buffers differing in their ionization heats (Figure 1B).
(§2) ITC experiments were performed at 25°C in a high-precision MCS titration calorimeter (Microcal Inc., Northampton, MA). Prior to the experiments the protein was extensively dialyzed at 4°C against the appropriate buffer. The solutions of p41 peptide were prepared by dissolving the lyophilized material directly into the buffer and subsequently adjusting the pH of the solution. All buffers and solutions were filtered and degassed and equilibrated to the working temperature prior to each experiment. […] The binding constant, Kb, and the enthalpy change of binding, ΔHb, were determined by global fitting of the three binding isotherms measured in different buffers, using a model of binding to a single set of identical sites, according to the equation: […]
(ITC needs no label: the signal is the heat of the interaction.)

Assay [2] relates to WT α-spectrin SH3 domain (WT Spc-SH3). The settings on record: Spc-SH3 relative to Abl-SH3; cited from earlier work. From the text:
Background SH3 domains are small protein modules of 60–85 amino acids that bind to short proline-rich sequences with moderate-to-low affinity and specificity. Interactions with SH3 domains play a crucial role in regulation of many cellular processes (some are related to cancer and AIDS) and have thus been interesting targets in drug design. The decapeptide APSYSPPPPP (p41) binds with relatively high affinity to the SH3 domain of the Abl tyrosine kinase (Abl-SH3), while it has a 100 times lower affinity for the α-spectrin SH3 domain (Spc-SH3). Results Here we present the high-resolution structu ... || Here we present the solution structure of the R21A mutant of the α-spectrin SH3 domain (Spc-SH3), both in its free form and bound to the decapeptide APSYSPPPPP (p41). We also show a complete thermodynamic characterization of the SH3-p41 interaction by calorimetric methods, together with an analysis of its effect upon the conformational dynamics of the SH3 domain using amide hydrogen-deuterium exchange (HX). The p41 peptide was initially designed as a high-affinity and high-specificity ligand for the Abl-SH3 domain [6] and the crystal structure of the complex was subsequently determined [[12] ...

Assay [3] addresses SH3 domain of the Abl tyrosine kinase (Abl-SH3). To be noted: cited from earlier work; for Kb (binding constant): ITC, 25°C. From the text: The affinities are much lower than that of the Abl-SH3 domain for p41 under similar conditions, which is in the range of 2 × 10^5 – 4 × 10^5 M^-1 [16]. In all cases the binding is driven by a large and favourable enthalpy change, partially compensated by an unfavourable entropy change. A similar thermodynamic signature is usually observed for the binding of proline-rich peptides to other SH3 domains. The very small variation of the binding enthalpies with the ionization enthalpy of the buffers ... || We have performed a global analysis of the ΔCpapp MathType@MTEF@5@5@+=feaafiart1ev1aaatCvAUfKttLearuWrP9MDH5MBPbIqV92AaeXatLxBI9gBaebbnrfifHhDYfgasaacH8akY=wiFfYdH8Gipec8Eeeu0xXdbba9frFj0=OqFfea0dXdd9vqai=hGuQ8kuc9pgc9s8qqaq=dirpe0xb9q8qiLsFr0=vr0=vr0dc8meaabaqaciaacaGaaeqabaqabeGadaaakeaacqqHuoarcqWGdbWqdaqhaaWcbaGaemiCaahabaGaemyyaeMaemiCaaNaemiCaahaaaaa@34D4@ curves using a simple model in which the protein/ligand binding and protein unfolding equilibria are coupled (Figure 2). This analysis is, with minor modifications, similar to that used previously for the analysis of the interaction be ...

Assay [4] addresses WT α-spectrin SH3 domain (WT Spc-SH3). Description: ITC titration of WT Spc-SH3 with p41. Type of assay: binding, chicken. Also on record: unit not given here. To be noted: 25°C, global fit of three isotherms, error = 95% confidence interval. As to the method:
as §1, §2

Assay [5] deals with p41 decapeptide. Description: ITC (quoted from reference 16, Palencia et al. 2004). The settings on record: 25 °C (Table 1 title), not stated ('under similar conditions'), cited from earlier work; for Kb: scale: 10^3 M^-1.
For assay [6], the target named is p41 decapeptide. Description: ITC (Microcal MCS). The settings on record: 25 °C, added salt not given, 20 mM buffer only, Three buffers of different ionisation heat at each pH, each 20 mM. At pH 7.0: phosphate, hepes and imidazole (named in F); for Kb: scale: 10^3 M^-1.

Read-outs that look alike come from different tables or passages of the source.

As for “APSYSPPPPP [p41, synthetic decapeptide …, both acetylated and methylated in its termini]”, the “Kb (binding constant)” value in assay [1] (pH 3.0, 20 mM buffers) was 18.2 ± 2.0 ×10^-3 M^-1; in assay [1] (pH 7.0, 20 mM buffers (phosphate, hepes, imidazole), single set of identical sites) it was 18.1 ± 1.9 ×10^-3 M^-1; in assay [3] (pH 3.0), 210000 M⁻¹; in assay [3] (pH 7.0) it was 323000 M⁻¹; in assay [4] (pH 3.0, 20 mM buffers), 5.8 ± 0.8 ×10^-3; in assay [4] (pH 7.0, 20 mM buffers), 5.2 ± 1.2 ×10^-3. Further, in assay [2], the “times lower affinity for Spc-SH3 than for Abl-SH3” value is reported as 100 times. Moreover, in assay [3] (under similar conditions), the “affinity of the Abl-SH3 domain for p41 (binding constant)” value is 200000 to 400000 M⁻¹.
Consider “Abl tyrosine kinase SH3 domain (Abl-SH3)”, for which, in the assay with p41 decapeptide [5] (pH 3.0), the ΔGb was -7.27 kcal/mol and the Kb was 210. Moreover, in the assay with p41 decapeptide [5] (pH 7.0), the p (protons per mole of ligand bound) is 0.1, the ΔGb was -7.5 kcal/mol and the Kb is 323.
On to “alpha-spectrin SH3 domain (Spc-SH3), R21A mutant R21A”, for which, in the assay with p41 decapeptide [6] (pH 3.0), the p (protons per mole of ligand bound) is -0.29, the ΔGb was -5.81 kcal/mol and the Kb was determined as 18.2. Moreover, in the assay with p41 decapeptide [6] (pH 7.0), the p (protons per mole of ligand bound) is 0.06, the ΔGb is -5.81 kcal/mol and the Kb was found to be 18.1.
In the case of “alpha-spectrin SH3 domain (Spc-SH3), wild type”, in the assay with p41 decapeptide [6] (pH 3.0), the p (protons per mole of ligand bound) was -0.07, the ΔGb was -5.14 kcal/mol and the Kb was found to be 5.8. In the assay with p41 decapeptide [6] (pH 7.0), the p (protons per mole of ligand bound) stood at 0.01, the ΔGb is -5.07 kcal/mol and the Kb worked out at 5.2.
